# Paper PMC6760278
# T1: OsNPPR1-repeat-MBP (Oryza sativa (rice), UniProt Q6Z2B6 182-806)
# T1 sequence: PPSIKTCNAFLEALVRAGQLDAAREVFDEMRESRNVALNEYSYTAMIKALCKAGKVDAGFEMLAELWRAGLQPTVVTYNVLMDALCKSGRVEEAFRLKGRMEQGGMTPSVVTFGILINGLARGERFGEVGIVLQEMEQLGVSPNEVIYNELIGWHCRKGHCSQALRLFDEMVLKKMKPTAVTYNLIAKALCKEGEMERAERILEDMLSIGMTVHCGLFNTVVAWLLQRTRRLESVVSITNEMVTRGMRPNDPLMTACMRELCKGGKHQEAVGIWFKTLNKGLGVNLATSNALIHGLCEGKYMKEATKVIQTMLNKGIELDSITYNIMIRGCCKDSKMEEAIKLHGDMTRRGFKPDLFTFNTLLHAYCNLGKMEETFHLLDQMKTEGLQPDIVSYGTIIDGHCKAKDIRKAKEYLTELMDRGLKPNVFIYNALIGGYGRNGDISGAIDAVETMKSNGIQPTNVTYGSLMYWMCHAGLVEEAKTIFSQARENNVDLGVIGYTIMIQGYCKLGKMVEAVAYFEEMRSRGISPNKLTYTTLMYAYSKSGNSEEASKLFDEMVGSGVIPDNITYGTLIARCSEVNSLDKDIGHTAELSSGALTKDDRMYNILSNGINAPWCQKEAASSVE
# Target: T1, OsNPPR1-repeat-MBP
# Experiment: EMSA
binder,measurement,value
CUCACCUCACCUCACCUCACCUCACCUCAC (ssRNA) [CUCAC probe],binding result,binds
